# According to US20090104204A1 (CRUCELL HOLLAND B V, published 2009):
# B1: single-chain phage antibody SC02-430 (scFv)
# scFv: QVQLQESGPGLVKPSQTLSLTCTVSGGSISSGGYYWSWIRQPPGKGLEWIGYIYYSGSTYYNSSLKSRVTISVDTSKNQFSLKLSSVTAADTAVYYCAKTVMNSFFDWGQGTLVTVSSGGGGSGGGGSGGGGSEIELTQPPSVSGSPGQSITISCTGTSSDVGSYNLVSWYQQHPGKAPKLMIYEVSKRPSGVSNRFSGSKSGNTASLTISGLQAEDEADYYCCSYAGSSWVFGGGTKLTVL
# notes: Selected from the semi-synthetic library JK1994 on S. aureus strain Cowan; also called scFv SC02-430
# B2: single-chain phage antibody SC05-133 (scFv)
# scFv: EVQLVETGGGLVKPGGSLRLSCSASRFSFRDYYMTWIRQAPGKGPEWVSHISGSGSTIYYADSVRGRFTISRDNAKSSLYLQMDSLQADDTAVYYCARGGRATSYYWVHWGPGTLVTVSSGTGGSGGTGSGTGGSTEIVLTQSPATLSLSPGERATLSCRASQSVSGYLGWYQQKPGQAPRLLIYGASSRATGIPDRFSGSGSGTDFTLTISRLEPEDFAVYYCQQYGSSPLTFGGGTKLEIKR
# notes: also called scFv SC05-133
# What was measured:
# bovine serum albumin [1] = biological target: T1, bovine serum albumin (bovine, UniProt P02769 25-607); experiment: ELISA, phage antibody on coated 1% BSA, anti-M13 peroxidase, OD 492 nm
# T1 construct: Negative control antigen in the non-specific reactivity ELISA; also called BSA; BSA (1%)
# T1 sequence (P02769 25-607 limits assumed): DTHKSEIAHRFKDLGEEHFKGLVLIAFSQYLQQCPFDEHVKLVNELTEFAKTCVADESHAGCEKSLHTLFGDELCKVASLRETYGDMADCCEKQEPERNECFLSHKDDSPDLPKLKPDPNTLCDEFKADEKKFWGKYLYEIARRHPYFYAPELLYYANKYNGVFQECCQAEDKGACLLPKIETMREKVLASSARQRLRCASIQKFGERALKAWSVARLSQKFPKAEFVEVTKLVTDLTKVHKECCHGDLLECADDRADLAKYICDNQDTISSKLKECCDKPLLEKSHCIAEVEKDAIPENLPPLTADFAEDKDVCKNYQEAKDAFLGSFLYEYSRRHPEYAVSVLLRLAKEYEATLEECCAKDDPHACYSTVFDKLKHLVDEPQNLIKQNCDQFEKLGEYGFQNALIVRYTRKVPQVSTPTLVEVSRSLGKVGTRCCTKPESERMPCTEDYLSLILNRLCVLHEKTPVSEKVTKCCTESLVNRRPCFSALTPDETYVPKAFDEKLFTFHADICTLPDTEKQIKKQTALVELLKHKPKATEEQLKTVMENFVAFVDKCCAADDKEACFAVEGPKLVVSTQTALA
# Procedure: (§1) To test for non-specific reactivity against non-bacterial antigens an ELISA assay was used. The complex antigens 5% FBS, 2% ELK and 1% BSA were coated overnight to Maxisorp™ ELISA plates. Selected single-chain phage antibodies were incubated for 15 minutes in an equal volume of PBS containing 1% BSA to obtain blocked phage antibodies. The plates were emptied, and the blocked single-chain phage antibodies were added to the wells. Incubation was allowed to proceed for two hours at room temperature, the plates were washed in PBS containing 0.1% v/v Tween-20 and bound phage antibodies were detected by means of OD 492 nm measurement using an anti-M13 antibody conjugated to peroxidase. As a control, the procedure was performed simultaneously without single-chain phage antibody, with a negative control single-chain phage antibody directed against West Nile virus envelope protein (SC04-374).
# bovine serum albumin [2] = biological target: T1, bovine serum albumin; experiment: ELISA, phage antibody on coated 1% BSA, anti-M13 peroxidase
# Procedure: as §1
Binder,binding result (bovine serum albumin [1]),ELISA (OD492 nm) (bovine serum albumin [2])
B1,no binding,0.04
B2,no binding,0.04
